In patent US20200102374A1 (VIB VZW, published 2020):

B1: VHH-DS-Cav1-L66 (VHH)
VHH: QVQLQESGGGLVQPGGSLRLSCAASGFTLDYYYIGWFRQAPGKEREGVSCISSSHGSTYYADSVKGRFTISRDNAKNTVYLQMNSLKPEDTAVYYCATVAVAHFRGCGVDGMDYWGKGTQVTVSS
B2: VHH-DS-Cav1-4 (VHH)
VHH: QVQLQESGGGLVQPGGSLRLSCAASGFTLDYYYIGWFRQAPGKEREAVSCISGSSGSTYYPDSVKGRFTISRDNAKNTVYLQMNSLKPEDTAVYYCATIRSSSWGGCVHYGMDYWGKGTQVTVSS

Assays:
[1] = target: F protein of RSV A2 virus (respiratory syncytial virus A2, UniProt P03420 26-574); assay: cell-based or functional assay
[2] = target: F protein of RSV B49 virus (respiratory syncytial virus B49); assay: cell-based or functional assay

F protein of RSV A2 virus, sequence (P03420 26-574): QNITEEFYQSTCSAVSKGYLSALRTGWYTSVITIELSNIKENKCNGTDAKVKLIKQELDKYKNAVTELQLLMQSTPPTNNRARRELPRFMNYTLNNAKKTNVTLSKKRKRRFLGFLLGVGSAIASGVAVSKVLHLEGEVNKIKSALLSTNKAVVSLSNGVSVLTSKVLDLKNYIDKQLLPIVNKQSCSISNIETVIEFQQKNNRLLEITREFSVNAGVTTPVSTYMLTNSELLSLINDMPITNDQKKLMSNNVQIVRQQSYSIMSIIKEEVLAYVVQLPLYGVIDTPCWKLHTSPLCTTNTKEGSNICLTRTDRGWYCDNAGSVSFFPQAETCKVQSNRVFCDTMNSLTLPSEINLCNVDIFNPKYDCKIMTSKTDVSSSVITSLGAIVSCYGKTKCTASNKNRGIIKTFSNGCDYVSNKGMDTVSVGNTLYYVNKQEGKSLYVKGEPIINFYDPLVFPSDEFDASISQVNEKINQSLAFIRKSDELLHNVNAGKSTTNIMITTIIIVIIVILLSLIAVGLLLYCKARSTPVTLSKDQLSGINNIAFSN

| Binder | IC50 of in vitro neutralization of RSV A2 (plaque reduction on Vero cells) [1] | IC50 of neutralization of RSV B49 (plaque reduction on Vero cells) [2] |
| --- | --- | --- |
| B1 | 32 pM | 32 pM |
| B2 | 21 pM | 15 pM |
